In paper PMC8136485, “Were Ancestral Proteins Less Specific?” (Molecular Biology and Evolution, 2021):
Primed or numbered codes have the meaning given here. Ends that are not written are not given here. 5FAM′ = 5-carboxyfluorescein

T1: human S100A5 (human, UniProt P33763 1-92)
T1 sequence: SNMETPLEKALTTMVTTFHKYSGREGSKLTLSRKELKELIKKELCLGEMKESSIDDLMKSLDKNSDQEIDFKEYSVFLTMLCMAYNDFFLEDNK

B1: probe peptide 5FAM-GFDWRWGMEALTGGGSAE (peptide)
peptide: {5FAM′}-GFDWRWGMEALTGGGSAE
notes: also called fluorescently labeled probe peptide; source: synthetic peptide, bought: Genscript (95% purity)
B2: unlabeled probe peptide GFDWRWGMEALTGGGSAE (peptide)
peptide: GFDWRWGMEALTGGGSAE
notes: the methods name only the nine test peptides and the probe as ordered from Genscript
B3: peptide SRQTTSTHEWVVGGGSAE (peptide)
chain: SRQTTSTHEWVVGGGSAE
modifications: synthetic unlabelled peptide with free N-terminus; C-terminal state not printed. The Methods print the full 18-mer (12-mer + GGGSAE flank, matching the stated library design); the Results form with …

Experiments:
human S100A5 = target: T1, human S100A5; test: fluorescence polarisation; displacement of the 5FAM probe peptide by increasing unlabeled peptide; 2.4-4.2 µM protein (monomer) with probe at the same concentration; 50 mM TES, 100 mM NaCl, 0.01% Tween-20, pH 7.4; KD,apparent corrected for the probe; details: both partners purified
human S100A6 = human S100A6 (human, UniProt P06703 1-90); test: as above; details: both partners purified

| Binder | binding result (human S100A5) | binding result (human S100A6) | Kd (human S100A5) | Kd (human S100A6) |
| --- | --- | --- | --- | --- |
| B1 | binds | binds | – | – |
| B2 | – | – | 2.6 ± 2 µM | 12.4 ± 2 µM |
| B3 | – | – | > 1000 µM | – |
